Where no end group is shown, it is not given here. The star is where a group is joined. Bz‑MA = benzoylmercaptoacetyl chelator, O=C(SCC(=O)*)c1ccccc1; Picolinoyl = O=C(c1ccccn1)*; Acm = CC(=O)NC*
Assays:
[1] = test system: rat inflammation model (E. coli, left hindleg); assay: Biodistribution and imaging of Tc-99m labelled conjugates in a rat inflammation model; conditions: for Blood / Urine / G.I. tract: Tc-99m labelled conjugate i.v.; for inflam muscle: inflamed muscle (left leg); for Uninfl muscle: non-inflamed muscle (right leg); for Inflam:Uninfl: ratio inflamed to uninflamed muscle
[2] = in vivo; cited from earlier work

Row | Substance | Blood ([1]; Time 35 min) [% dose/g] | Urine ([1]; Time 35 min) | inflam muscle ([1]; Time 35 min) [% dose/g] | Uninfl muscle ([1]; Time 35 min) [% dose/g] | Inflam:Uninfl ([1]; Time 35 min) | G.I. tract ([1]; Time 35 min) | also measured
1 | Bz-MA-Ser-Cys-Ser-Gly-Asp-Gly-TKPPR ({Bz‑MA}-SCSGDGTKPPR) [BzMASerCys SGDG- TKPPR] | 0.483 | 47.8 | 0.226 | 0.057 | 4.0 | – | –
2 | Pic-Ser-Cys(Acm)-Gly-Asp-Gly-TKPPR (Picolinoyl-SC(Acm)GDGTKPPR) [PicSerCys(Acm) GDG TKPPR] | 0.228 | 63.1 | 0.166 | 0.034 | 4.9 | – | –
3 | Pic-Ser-Cys(Acm)-Gly-TKPPR (Picolinoyl-SC(Acm)GTKPPR) [PicSerCys(Acm) Gly TKPPR] | – | – | – | – | – | – | Blood ([1]; Time 30 min): 0.392 % dose/g; G.I. tract ([1]; Time 30 min): 5.08; Urine ([1]; Time 30 min): 44.71; Blood ([1]; Time 180 min): 0.048 % dose/g; G.I. tract ([1]; Time 180 min): 3.71; Urine ([1]; Time 180 min): 80.62; inflam muscle ([1]; Time 30 min): 0.154 % dose/g; inflam muscle ([1]; Time 180 min): 0.026 % dose/g; Uninfl muscle ([1]; Time 30 min): 0.052 % dose/g; Uninfl muscle ([1]; Time 180 min): 0.006 % dose/g; Inflam:Uninfl ([1]; Time 30 min): 3.6; Inflam:Uninfl ([1]; Time 180 min): 4.7
4 | PicSerCys(Acm) Gly KPPR: chelator PicSerCys(Acm), linking group Gly, peptide KPPR (Seq ID no: 9); comparison conjugate ({Picolinoyl-Ser-Cys(Acm)}-GKPPR) | – | – | – | – | – | – | Blood ([1]; Time 45 min): 0.220 % dose/g; Urine ([1]; Time 45 min): 43.5; inflam muscle ([1]; Time 45 min): 0.125 % dose/g; Uninfl muscle ([1]; Time 45 min): 0.059 % dose/g; Inflam:Uninfl ([1]; Time 45 min): 2.1
5 | PicSerCys(Acm) Gly RTKPR: chelator PicSerCys(Acm), linking group Gly, peptide RTKPR (Seq ID no: 11); comparison conjugate ({Picolinoyl-Ser-Cys(Acm)}-GRTKPR) | 0.169 | 45.4 | 0.099 | 0.033 | 3.0 | 15.0 | –
6 | PicSerCys(Acm) Gly TKPR: chelator PicSerCys(Acm), linking group Gly, native tuftsin peptide TKPR (Seq ID no: 1); comparison conjugate ({Picolinoyl-Ser-Cys(Acm)}-GTKPR) | 0.268 | 22.8 | 0.120 | 0.040 | 3.0 | 22.8 | –
7 | PicSerCys(Acm) Gly TKPRTKPR: chelator PicSerCys(Acm), linking group Gly, peptide TKPRTKPR (tuftsin dimer, Seq ID no: 10); comparison conjugate ({Picolinoyl-Ser-Cys(Acm)}-GTKPRTKPR) | 0.136 | 16.1 | 0.071 | 0.022 | 3.2 | 4.2 | accumulation in blood, in words [1]: low accumulation; accumulation in the GI tract, in words [1]: low accumulation; urine levels / clearance into the urine, in words [1]: particularly low urine levels
8 | labelled tuftsin: naturally occurring tetrapeptide tuftsin TKPR (Seq. ID no:1) labelled with a radionuclide metal (also: labelled with a radionuclide metal) | – | – | – | – | – | – | accumulation in non-target tissue (gastrointestinal tract), in words [2]: accumulated in the gastrointestinal tract

Reference: patent publication US5866544A, “Peptide-chelator conjugates” (Resolution Pharmaceuticals, Inc., priority 1997, dated 1999)
